Laboratory results taken from PMC4063679 (Structure (London, England : 1993), 2011).
Like-named read-outs stand apart in the source and are kept apart here. Where no end group is shown, it is not given here.

Key:
[1] = biological target: T1, His-tagged I-BAR domain of IRSp53, wild type (human, UniProt Q9UQB8-4 1-250); assay: ITC
T1 sequence: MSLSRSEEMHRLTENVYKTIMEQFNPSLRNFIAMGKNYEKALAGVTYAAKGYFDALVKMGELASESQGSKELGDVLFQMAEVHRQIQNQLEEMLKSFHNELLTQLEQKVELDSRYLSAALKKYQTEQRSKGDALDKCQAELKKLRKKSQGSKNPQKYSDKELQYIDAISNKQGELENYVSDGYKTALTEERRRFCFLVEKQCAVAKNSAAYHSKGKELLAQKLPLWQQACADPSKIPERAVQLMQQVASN

[2] = biological target: T1, His-tagged I-BAR domain of IRSp53, wild …; assay: ITC; remark: listed apart in the source

GTVQNPYADVKT-NH2 [EHEC Tir-derived dodecapeptide GTVQNPYADVKT (residues 452-463)]
Kd [1]: 59 ± 10 µM

SEVVNPYAEVGG-NH2 [EPEC Tir-derived 12-mer peptide SEVVNPYAEVGG (residues 448-459)]
Kd [2]: 37 ± 14 µM
